{"source": "the RNAGym collection of RNA variant scans (doi:10.7554/elife.80360)", "parents": {"B1": {"name": "CPEB3 Ribozyme (parent)", "chain": "GGGGGCCACAGCAGAAGCGUUCACGUCGCGGCCCCUGUCAGAUUCUGGUGAAUCUGCGAAUUCUGCUGU"}}, "data": [{"variants_of": "B1", "assay": "self-cleavage, relative activity (ratio to wild type); higher = more cleavage; co-transcriptional", "values": [{"variant": "U44C A51G", "self-cleavage": 0.693}, {"variant": "U44C A51C", "self-cleavage": 0.99}, {"variant": "U44C A51U", "self-cleavage": 0.919}, {"variant": "U44C U67G", "self-cleavage": 0.931}, {"variant": "U44C U67A", "self-cleavage": 0.954}, {"variant": "U43G A60G", "self-cleavage": 0.556}, {"variant": "U43G A60U", "self-cleavage": 0.419}, {"variant": "U43G A60C", "self-cleavage": 0.498}, {"variant": "U44C C54G", "self-cleavage": 0.599}, {"variant": "U44C C54A", "self-cleavage": 0.627}, {"variant": "U44C C54U", "self-cleavage": 0.816}, {"variant": "U43G G48A", "self-cleavage": 0.964}, {"variant": "U43G G48C", "self-cleavage": 0.933}, {"variant": "U43C G50A", "self-cleavage": 0.956}, {"variant": "U43G U49A", "self-cleavage": 0.963}, {"variant": "U43G U49G", "self-cleavage": 0.922}, {"variant": "U43G U49C", "self-cleavage": 0.815}, {"variant": "U43A C45U", "self-cleavage": 1.03}, {"variant": "U43A C45A", "self-cleavage": 0.859}, {"variant": "U43A G50A", "self-cleavage": 0.962}, {"variant": "U43A G50U", "self-cleavage": 0.959}, {"variant": "U43A G50C", "self-cleavage": 0.91}, {"variant": "U44C U53G", "self-cleavage": 0.747}, {"variant": "U44C U53A", "self-cleavage": 0.895}, {"variant": "U44C U53C", "self-cleavage": 0.647}, {"variant": "U44G A51G", "self-cleavage": 0.671}, {"variant": "U44G A51U", "self-cleavage": 0.941}, {"variant": "U44G A51C", "self-cleavage": 0.966}, {"variant": "U44A G56A", "self-cleavage": 0.849}, {"variant": "U44A G56C", "self-cleavage": 0.383}, {"variant": "U43A U67A", "self-cleavage": 0.919}, {"variant": "U43A U67C", "self-cleavage": 0.895}, {"variant": "U43C U55C", "self-cleavage": 0.455}, {"variant": "U43C U55A", "self-cleavage": 0.632}, {"variant": "U43G U53A", "self-cleavage": 0.8}, {"variant": "U43G U53G", "self-cleavage": 0.854}, {"variant": "A42U C54A", "self-cleavage": 0.834}, {"variant": "A42U C54G", "self-cleavage": 0.56}, {"variant": "U43C", "self-cleavage": 0.981}, {"variant": "U43A", "self-cleavage": 0.953}, {"variant": "U43G", "self-cleavage": 0.929}, {"variant": "U43C A52C", "self-cleavage": 0.968}, {"variant": "U43C A52U", "self-cleavage": 1}, {"variant": "U44G C66G", "self-cleavage": 0.707}, {"variant": "U44G C66U", "self-cleavage": 0.986}, {"variant": "U44G A59U", "self-cleavage": 0.612}, {"variant": "U44G A59G", "self-cleavage": 0.951}, {"variant": "A42U G47U", "self-cleavage": 1.02}, {"variant": "A42U G47C", "self-cleavage": 0.993}, {"variant": "U43A U53G", "self-cleavage": 0.773}, {"variant": "U44G G50C", "self-cleavage": 0.949}, {"variant": "U44G G50U", "self-cleavage": 0.98}, {"variant": "A42U G68A", "self-cleavage": 0.956}, {"variant": "U44C U49A", "self-cleavage": 0.931}, {"variant": "U44C U49C", "self-cleavage": 0.83}, {"variant": "U44C U49G", "self-cleavage": 0.959}, {"variant": "U43C C54U", "self-cleavage": 0.905}, {"variant": "U43C C54G", "self-cleavage": 0.585}, {"variant": "U43G U55G", "self-cleavage": 0.264}, {"variant": "U43G U55A", "self-cleavage": 0.486}, {"variant": "U43C G48C", "self-cleavage": 1}, {"variant": "U43C G48U", "self-cleavage": 0.998}, {"variant": "U44A G47C", "self-cleavage": 0.93}, {"variant": "U43A G58A", "self-cleavage": 0.929}, {"variant": "U43A G58U", "self-cleavage": 0.946}, {"variant": "U44A A59C", "self-cleavage": 0.638}, {"variant": "U44A A59G", "self-cleavage": 0.924}, {"variant": "U44A A59U", "self-cleavage": 0.725}, {"variant": "U44A U55C", "self-cleavage": 0.496}, {"variant": "U44A U55A", "self-cleavage": 0.566}, {"variant": "U44A U53A", "self-cleavage": 0.922}, {"variant": "U44A U53G", "self-cleavage": 0.84}, {"variant": "U44A U53C", "self-cleavage": 0.684}, {"variant": "U43C U67C", "self-cleavage": 0.969}, {"variant": "U43C U67G", "self-cleavage": 1.01}, {"variant": "U43C U67A", "self-cleavage": 0.98}, {"variant": "U43C U46G", "self-cleavage": 0.97}, {"variant": "U43C U46A", "self-cleavage": 0.985}, {"variant": "U43C U46C", "self-cleavage": 0.939}, {"variant": "U44G G47U", "self-cleavage": 1.01}, {"variant": "U44G G47C", "self-cleavage": 0.962}, {"variant": "U44G G47A", "self-cleavage": 0.954}, {"variant": "U44A U61C", "self-cleavage": 0.662}]}]}
